Measured values taken from US20230002478A1 (published 2023).
“And” between values parts separate entries of the source, which are not always exact repeats. Equal values may be shown once. Read-outs that look alike come from different tables or passages of the source.

Legend:
Assay in all cases: SPR
[1] = target: T1, SARS-CoV-2 spike protein, kappa variant (SPR, FIG. 28 Panel D) (SARS-CoV-2, UniProt P0DTC2 16-1213)
[2] = target: T2, SARS-CoV-2 spike protein, gamma variant (SPR, FIG. 28 Panel C) (SARS-CoV-2, UniProt P0DTC2 16-1213)
[3] = target: T3, SARS-CoV-2 spike protein, beta variant (SPR, FIG. 28 Panel B) (SARS-CoV-2, UniProt P0DTC2 16-1213)
[4] = target: SARS-CoV-2 spike protein, wildtype variant (SPR, FIG. 28 Panel A) (SARS-CoV-2, UniProt P0DTC2 16-1213)
[5] = target: T1, SARS-CoV-2 spike protein, kappa variant …; remark: listed apart in the source
[6] = target: T2, SARS-CoV-2 spike protein, gamma variant …; remark: listed apart in the source
[7] = target: SARS-CoV-2 spike protein, Delta variant (SPR) (SARS-CoV-2, UniProt P0DTC2 16-1213)
[8] = target: T3, SARS-CoV-2 spike protein, beta variant …; remark: listed apart in the source
[9] = target: SARS-CoV-2 S Trimer Alpha B.1.1.7 UK variant
[10] = target: SARS-CoV-2 mutant trimer UK TB918-09

B1: antibody 202-03 (Fc fusion)
chain: EVQLVESGGGLVQPGGSLRLSCAASGFTFSPSWMGWFRQAPGKEREFVATINEYGGRNYADSVKGRFTISADNSKNTAYLQMNSLKPEDTAVYYCARVDRDFDYWGQGTLVTVSS
Kd [1]: 0.272 nM
Kd [2]: < 0.073 nM
Kd [3]: < 0.05 nM
Kd [4]: < 0.064 nM
Kd [5]: 0.105 nM
Kd [6]: < 0.041 nM
Kd [7]: 0.312 nM
Kd [8]: < 0.095 nM

B2: T8202-3 (TP37196F) (Fc fusion)
chain: B1 chain
Kd [9]: < 0.075 nM

B3: 6-3 (Fc fusion)
chain: B1 chain
Kd [10]: 0.857 nM and 1.3 nM

B4: antibody 339-031 (Fc fusion)
chain: EVQLVESGGGLVQPGGSLRLSCAASGSTFSINAMGWFRQAPGKEREFVAGITSSGGYTNYADSVKGRFTISADNSKNTAYLQMNSLKPEDTAVYYCAADGVPEYSDYASGPVWGQGTLVTVSS
Kd [1]: < 0.01 nM
Kd [2]: < 0.0094 nM
Kd [7]: < 0.011 nM
Kd [8]: < 0.0096 nM

B5: T8339-031 (Fc fusion)
chain: B4 chain
Kd [9]: < 0.011 nM
